Experimental findings from IntAct's records for PubMed 16511560 are described below.

B1: Protein Mdm4 (Homo sapiens), O15151 (parent)
chain: MTSFSTSAQCSTSDSACRISPGQINQVRPKLPLLKILHAAGAQGEMFTVKEVMHYLGQYIMVKQLYDQQEQHMVYCGGDLLGELLGRQSFSVKDPSPLYDMLRKNLVTLATATTDAAQTLALAQDHSMDIPSQDQLKQSAEESSTSRKRTTEDDIPTLPTSEHKCIHSREDEDLIENLAQDETSRLDLGFEEWDVAGLPWWFLGNLRSNYTPRSNGSTDLQTNQDVGTAIVSDTTDDLWFLNESVSEQLGVGIKVEAADTEQTSEEVGKVSDKKVIEVGKNDDLEDSKSLSDDTDVEVTSEDEWQCTECKKFNSPSKRYCFRCWALRKDWYSDCSKLTHSLSTSDITAIPEKENEGNDVPDCRRTISAPVVRPKDAYIKKENSKLFDPCNSVEFLDLAHSSESQETISSMGEQLDNLSEQRTDTENMEDCQNLLKPCSLCEKRPRDGNIIHGRTGHLVTCFHCARRLKKAGASCPICKKEIQLVIKVFIA

The variants in the assay derive from B1. To be noted: with ima4_human KPNA3, O00505.
Chain of ima4_human KPNA3, O00505 (O00505 whole entry): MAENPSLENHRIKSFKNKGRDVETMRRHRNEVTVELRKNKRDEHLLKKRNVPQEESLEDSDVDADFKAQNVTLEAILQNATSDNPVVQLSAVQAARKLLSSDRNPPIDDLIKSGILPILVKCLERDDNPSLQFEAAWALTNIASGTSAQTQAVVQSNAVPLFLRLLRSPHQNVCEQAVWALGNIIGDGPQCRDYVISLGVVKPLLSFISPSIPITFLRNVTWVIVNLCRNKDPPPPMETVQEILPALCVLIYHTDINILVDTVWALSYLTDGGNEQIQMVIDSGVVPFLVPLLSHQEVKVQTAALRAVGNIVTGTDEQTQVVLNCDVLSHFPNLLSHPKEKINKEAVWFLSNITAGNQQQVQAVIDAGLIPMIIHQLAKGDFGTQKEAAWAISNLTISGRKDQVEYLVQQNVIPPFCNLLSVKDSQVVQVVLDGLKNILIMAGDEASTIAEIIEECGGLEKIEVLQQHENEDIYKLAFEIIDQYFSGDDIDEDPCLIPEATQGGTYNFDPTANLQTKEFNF
K468E: the “effect of a mutation on the interaction” value was “disrupting interaction”.
